For four molecules, other and Kd results are on record in paper PMC3226441, “Generation of recombinant single-chain antibodies neutralizing the cytolytic activity of vaginolysin, the main virulence factor of Gardnerella vaginalis” (BMC Biotechnology, 2011).

First the molecules themselves.
B1: anti-VLY scFv 23A2 (VL-VH) (scFv, V domains shown)
VH: QVQLEQSGAELVRSGASVKISCKASGYTFPSYNMHWVKQTPGQGLEWIGYIYPGNGVTNYNQKFKGKATLTADTSSSTAYMQISSLTSEDSAVYFCAREEGGNLLWGHFAMDYWGQGTSVTVSS
VL: DIVMTQTTLSLPVSLGDQASISCRSSQSLVHSNGNTYLHWYLQKPGQSPKLLIYKVSNRFSGVPDRFSGSGSGTDFTLKISRVEAEDLGVYFCSQSTHVPPTFGGGTKLEIR
notes: also called 23A2-derived scFv (variant VL-VH); source: E. coli BL21(DE3), from inclusion bodies, renatured, purified (Ni-NTA); not shown: His6, N-terminal, kept
B2: anti-VLY scFv 23A2 (VH-VL) (scFv, V domains shown)
VH: B1 VH
VL: B1 VL
notes: also called 23A2-derived scFv (variant VH-VL); source: E. coli BL21(DE3), from inclusion bodies, renatured, purified (Ni-NTA); not shown: His6, N-terminal, kept
B3: anti-VLY scFv 9B4 (VL-VH) (scFv, V domains shown)
VH: QVQLEQSGPGLVAPSESLTITCTVSGFSLNSYGVHWVRQPPGKGLEWVGVMWAGGNTSYNSALMSRLSISKDNSKSQVFLKMNSLQTDDTAIYYCARARGAMDYWGQGTSVTVSS
VL: DIVMTQTTSHLSVSLGDRVTIACKASAHINNWLAWYQQKPGNAPSLLIAGATGLETGVPSRFSGSGSGKDFTLSISSLQTEDVATYYCQQYWDTPYTFGGGTKLEIR
notes: also called 9B4-derived scFv (variant VL-VH); source: E. coli BL21(DE3), from inclusion bodies, renatured, purified (Ni-NTA); not shown: His6, N-terminal, kept
B4: anti-VLY scFv 9B4 (VH-VL) (scFv, V domains shown)
VH: B3 VH
VL: B3 VL
notes: also called 9B4-derived scFv (variant VH-VL); source: E. coli BL21(DE3), from inclusion bodies, renatured, purified (Ni-NTA); not shown: His6, N-terminal, kept

The target in one assay is T1, vaginolysin (VLY), recombinant (Gardnerella vaginalis). Kind of assay: cell-based or functional assay.
Settings: not given
B1: the other was 110 nM.
On the same count and under the same terms, with B2 the figure was 150 nM.
Turning to B3, the other worked out at 37 nM.
Still for that read-out and setting: with B4 the figure was 51 nM.

For a further assay, the target named is T1, vaginolysin (VLY), recombinant. Kind of assay: ELISA; indirect ELISA; recombinant purified VLY (5 μg/ml, 50 mM Na-carbonate pH 9.5) coated on MaxiSorp plates; scFv 50 μg/ml to 20 ng/ml, 1 h at RT; detected by anti-His5 MAb and HRP-labelled anti-mouse IgG; apparent Kd = molar concentration at the mid-point of the titration curve. Conditions: both partners purified. For orientation: ELISA stands for enzyme-linked immunosorbent assay.
With B1, the Kd amounted to 92 nM.
On the same count and under the same terms, in the case of B2 it was 98 nM.
As to B3, the Kd was 11 nM.
In the case of B4, the Kd stood at 15 nM.
